This test has as its target T1, GST-Nup88 (human, UniProt Q99567 1-741).
T1 sequence (looked up): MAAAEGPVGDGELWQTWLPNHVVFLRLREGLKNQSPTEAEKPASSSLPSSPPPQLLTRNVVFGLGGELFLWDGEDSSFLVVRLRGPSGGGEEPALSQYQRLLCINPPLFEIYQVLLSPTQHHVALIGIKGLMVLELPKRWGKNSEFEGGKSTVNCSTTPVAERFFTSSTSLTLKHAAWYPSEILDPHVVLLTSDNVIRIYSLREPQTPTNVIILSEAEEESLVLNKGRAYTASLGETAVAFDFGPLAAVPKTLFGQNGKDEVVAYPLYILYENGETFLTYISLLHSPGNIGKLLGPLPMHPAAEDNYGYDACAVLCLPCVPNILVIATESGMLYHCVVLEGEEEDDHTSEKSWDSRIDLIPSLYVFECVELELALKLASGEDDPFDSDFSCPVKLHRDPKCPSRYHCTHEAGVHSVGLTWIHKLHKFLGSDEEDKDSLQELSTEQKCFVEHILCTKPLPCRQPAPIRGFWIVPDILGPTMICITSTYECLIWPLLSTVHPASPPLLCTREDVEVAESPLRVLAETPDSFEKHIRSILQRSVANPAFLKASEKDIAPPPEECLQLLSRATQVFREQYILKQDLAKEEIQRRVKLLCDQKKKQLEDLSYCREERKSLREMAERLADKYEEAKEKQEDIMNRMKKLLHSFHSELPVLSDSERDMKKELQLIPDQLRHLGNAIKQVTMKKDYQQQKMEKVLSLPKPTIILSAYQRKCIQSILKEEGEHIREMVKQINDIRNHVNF
Put plainly: far-Western, overlay or dot blot.

B1: lamin A tail (residues 243-664), bacterially expressed and purified (domain or fragment, human, UniProt P02545 243-664, looked up)
chain: DALQELRAQHEDQVEQYKKELEKTYSAKLDNARQSAERNSNLVGAAHEELQQSRIRIDSLSAQLSQLQKQLAAKEAKLRDLEDSLARERDTSRRLLAEKEREMAEMRARMQQQLDEYQELLDIKLALDMEIHAYRKLLEGEEERLRLSPSPTSQRSRGRASSHSSQTQGGGSVTKKRKLESTESRSSFSQHARTSGRVAVEEVDEEGKFVRLRNKSNEDQSMGNWQIKRQNGDDPLLTYRFPPKFTLKAGQVVTIWAAGAGATHSPPTDLVWKAQNTWGCGNSLRTALINSTGEEVAMRKLVRSVTVVEDDEDEDGDDLLHHHHGSHCSSSGDPAEYNLRSRTVLCGTCGQPADKASASGSGAQVGGPISSGSSASSVTVTRSYRSVGGSGGGSFGDNLVTRSYLLGNSSPRTQSPQNCSIM
For B1, the binding result is reported as “binds”.

These data come from article PMC3069011 (Molecular Biology of the Cell, 2011).
